Measurements taken from publication doi:10.1101/071829.
Where two headings read alike, the source gives them in different places.

Columns and labels:
Test in all cases: SEC
[1] = molecular target: C. difficile replicative helicase CD3657, purified non-tagged (Clostridium difficile 630)
[2] = molecular target: C. difficile replicative helicase CD3657, purified non-tagged (Clostridium difficile 630); remark: listed apart in the source
[3] = molecular target: C. difficile putative helicase loader ATPase CD3654, purified non-tagged (Clostridium difficile 630)
[4] = molecular target: C. difficile replicative helicase CD3657, purified non-tagged (Clostridium difficile 630); remark: listed apart in the source

C. difficile replicative helicase CD3657, purified non-tagged (enzyme)
stoichiometry N [1]: 6 | stoichiometry N [2]: 6 | stoichiometry N (CD3657 per CD3654 (6:6)) [3]: 1 | stoichiometry N [4]: 6
